Results published in article doi:10.1101/2021.05.23.445342.
Several values for one entry are separate records, joined by “and”; a condition that tells them apart may be missing. Identical values can stand only once.

Experiments:
[1] = target: Calcineurin (human PPP3CA / PPP3R1 heterodimer) (human) (UniProt Q08209); test: AUC
[2] = target: Biotin-Cys-AKAP5c (human) (UniProt P24588); test: SPR
[3] = target: Biotin-Cys-AKAP5c_(ILVF->SA) (human) (UniProt P24588); test: SPR

Kd [1]: 100000 nM
percent heterotetramer [1]: 8%
Kd of a further surface site class [2]: 1000 to 10000 nM
Kd of surface site class 1 (one or possibly two very similar sites) [2]: 10 to 100 nM
Kd of the one main surface site class [3]: 100 nM and 1000 nM
Substance: Calcineurin (human PPP3CA / PPP3R1 heterodimer) (from UniProt Q08209 1-521; P63098 1-170) (complex)
